The DeepSol protein solubility set

Assay: soluble on expression in E. coli; label from the status in PepcDB or PDB records

Row | Sequence | soluble on expression in E. coli
1 | MSLIKVIDAHVHYHIYARKIPEHCKEFLENVEGTRMTLKNDNVEIEKILLVPSHPCHSEDCYDGFYIDYEERKRNPDLYMQWGEVNPLKCDVKRELERQYSLGIIGIKLHPVHHTFKPNAYREEEGGLKQLLYIYEFAEDHGLPILIHTGTSIGVGSRNKYADPIYADDIAKDFPKLRIILAHAGRPLWYNTAFHMARFTQNIFLEISSIPPKNILKVLPRIHEISDKVIYGSDFPAFKGQDLAEYAYQVYNVLKNEKIMRDNAKRILKISEGHHHHHH | not soluble
2 | MSLIKWGFIGCGEVTKTKSGPAFQKVEHSEVVAVMSRDGAKAKAYAKERGIRKWYDDAQELIDDPEVNAIYIATPPSSHATYAIMAMKAGKPAYIEKPMAVTYEECTRINRISKETGVPCFVAYYRRYLPYFQKVKEMVENGSIGNVINVQVRFAQPPRDLDYNRENLPWRVQADIAGGGYFYDLAPHQIDLLQDMFGCILEASGYKSNRGGLYPAEDTLSACFQFDNGLVGSGSWCFVAHDSAREDRIEIIGDKGMICFSVFTYEPIGLHTERGREEICIGNPEHVQQPLIQAVVDHLLGKSVCSCDGESATLTNWVMDKILGKLEGHHHHHH | soluble
3 | MSLILVTGHRGFIGSHIYSYFNGNSEVYGFDIGDKLEDRRYDVIIHMAARGLIRKSIEFPYDYFQDDLSLVVRFLELARKNDSVFIFPSSGSTAEPTNPYSLAKKNAEEWIRLYGKLYGLKYYILRFFNIYGDGAKKGAVYLFTKAALSGEEAIVYGDGSHIRDFLYVGDVPITIERILNEKYRTGEYEVGSGKGTSVNDLISLIEKVTGKKIRTRHEDYIVPEASELVAKNTIVKNPTPLEVGVERVMEFILKDNEGHHHHHH | soluble
4 | MSLINEATLAESIRRLRQGERATLAQAMTLVESRHPRHQALSTQLLDAIMPYCGNTLRLGVTGTPGAGKSTFLEAFGMLLIREGLKVAVIAVDPSSPVTGGSILGDKTRMNDLARAEAAFIRPVPSSGHLGGASQRARELMLLCEAAGYDVVIVETVGVGQSETEVARMVDCFISLQIAGGGDDLQGIKKGLMEVADLIVINKDDGDNHTNVAIARHMYESALHILRRKYDEWQPRVLTCSALEKRGIDEIWHAIIDFKTALTASGRLQQVRQQQSVEWLRKQTEEEVLNHLFANEDFDRYYRQTLLAVKNNTLSPRTGLRQLSEFIQTQYFDEGHHHHHH | soluble
5 | MSLINPIDPAARRPQTTVQPSTPPQAKPKPLAATQVLPAQSVLNLAQSELGTDMQELGSIFPVEESCAETLENMSFALGTQARERMRGLSSSADRARPRSMMQRLAKQVSATAPDHLEELRQRVPGIEAVEEVDDLLNSLRQHQFDAGEMALLLAAMLGKDGLSPTRRRRLEEALDRVMDDEDWALQLFSHLEFGAVGKSGLAELRRLYQRAASRQSGLVYWFGQFRQMDDRQRKLKTLIRALAFELSAQGGATDIRLAAVITDLKRVLQFLGMEDHCDRVAKALAIPELDGNRIIEELLEIIQQSWVYPDWLSSRADALMPEEHSRHGYARRMGELVKLLPDDCFEDIDQRETILAAFLEYQEQLADEEEGHHHHHH | soluble
6 | MSLIQLRPCPKSYTRDQDKATTPAETVRRVRERLASLDISILAETRRVDVGRLGIPVFLSVCGADARAVMPTRKQMGKGASLEQAQASALMELMERYSFFTFWRDMPGMVEATWSEARNRFGDALIPVDEILHSVHDTLSPDDAVRALDLWRWKFFPATDITHGREVWLPLDWFKKLGEFNGSSAGNTEEESILQGSCELVERHVCCLIDRTQPELPTIDPASLDDPVLLELAAAFERNGIRLVLKDFSMGMPVPTVGAIAWDPATFPERSEIVYTAGTSSSPVKAAIRAVTEVAQLAGDFCTGACYEASGLSKYESLDDIAWLVAGPVVALDTLPSVETDDIRDELAALCDGLAATGHTLYSVSTMNPDVGVNTHYNIVPGFHFRERDRNAEGHHHHHH | not soluble
7 | MSLIRVSSAVQRHAQKLIVLFSLLFGASLLMSDNGFATDIKNTNASSPVNSESTKPTKAGEVKNVVRFAKTGSFDNDTVVRLARQLAKKPYVALKDPLPESLANISYDEYRDIRFKPDSAVWKADGLPYQMQLFHRGFFFQDLIEIALVEGNQATHLSYDPNMFTAGEVLQQNLPTEDIGYSGLRVHYPLNSPSYFDELFVFQGASYFRALGKGNAYGLSARGLAIKTADPAGEEFPIFRAFWVEKPNYDTNLIVVHALLDSPSVSGAYRFSIRPGENTRMDVEAVLFPRVELSKVGLAPATSMFMHSPNGREKTDDFRPSVHDSDGLLMINGRGERLWRPLANPSTLQVSAFMDNSPQGFGLMQRERDYANYQDLEAHYEKRPSLWVEPVGNWGPGAVVLTEIPTQSEIHDNIVAFWKPAQPLAAGSEYRFSYHLNWGAQPEANPQAITVSRTASGRADIAKPTPKRLFVIDYQVQGAKPAQMPEPKVRSNAGVISNVVLRDNPANNGYRLSFEFDPGEVTLAELRAELTLQEARPVETWLYRWTLEGGSHHHHHH | soluble
8 | MSLITLKELAKQLNVSVSTVSKALHDAKDISEGTKKRIKEAAQLYNYRPNKTALALKVNKTNTIGVIIPDILNPFFAQVLHGIEDYATEHNYDTIVCVSHDQLKKEAQSLDLLMQGRVDGFILSLSSESLAQDNFLHIDQIALNKKGLVLFDRTTDQVDCDKVVIDDKRSVYDATRILISKGKTKIAFVSNIEDLNLGQLRKEGYENALRDHGIEVNYSLNLDLTGSSDPHGLIKAFLSMQEIDGVISADNTSSLMFKSILKSERPDTNSEIPLIGFSDEKNSLLSYPRIDYIDQNAMKIGSKAAELLINRLESKDLTSKPITFEMPTEIHLYEGHHHHHH | soluble
9 | MSLITLPKISLIGSNIAKEGLEFVFAGPLAACSDCRVKNVCFNLEQGHRYRVTKVREQVNPCIIFNGDKVNTVEVEELEDYVNVQESKRIQEGAIITLKSMNCDYITCPNIEKCNLYYFKPDSKVMVKSIGKEIKCPKGYKMKQVAITYKEGHHHHHH | not soluble
10 | MSLKAIIDNIKILEQNAINKGLDELILMENAGLNLAKLIKKEAKKIRIQRKIRKVKILFLLGGGNNASDGLVALRNLKHAKAYKIGFKENTLFKKQEQILQNYAFKFCKKEPNFKKFHIIIDCILGTGSNRCLDEKTSLIIQKVNQSKALKIACDIPTNLGFYPCFKADITFCMGALKEILLEDFAKEFVGRIKIANLGIRSKKFYPNSQAFLLEKKDLKTIDRKINANKGNFGHIYIVANASAGTLAGLGALNFGAGLVSLVAQKSFSPLLMLKEKIENNASAIALGMGLENLDFLKDEILQNTPLILDANCFLSEALLWYLNRKDVVITPHPKEFIKLYKMCFDENLDIETLQKNRFFYARKFSQNYDCVLVLKGANPIIVQKEKLFVVNLGNQALAKGGSGDVLSGMIAAHLGFGFSALEAAKNATLAHGLVAKKYKFNKNSFDALKLIKGLKCLEGHHHHHH | soluble
11 | MSLKDEYTTSFGIRTIEVIPNKGFFLNGKRTSFKGVCNHHDLGPLGGAVNDAAIRRQIRILKDMGCNAIRTSHNMPAPELIRACDEMGMMVMAESFDEWKAMKVKNGYRHVFDEWAVKDLTNLLRHYRNNPSVVMWCIGNEVPEQWDGNKGPKMSYFLQELCHREDPTRPVTQGMDAPDAVVNNNMAAVMDIAGFNYRPHKYQENYKKLPQQIVLGSETASTVSSRGVYKFPVTRQWMKKYDDHQSSSYDVESCSWSNLPEDDFIQHEDLPYCIGEFVWTGFDYLGEPTPYYTDWPSHSSLFGIIDLAGLPKDRYYLYRSHWNKEQETLHILPHWNWEGREGEITPVFVYTNYPSAELFINGKSQGKRTKDLSVTIDNSADSVSIMNLKRQSRYRLMWMDTKYEPGTVKVVAYDADGKAVAEKELHTAGKPDHIELVADRNVIKADGKDLSFVTVRVVDRDGNLCPDASHEISFKVKGEGSYRAGANGNAASLESFQHPKMKVFSGMMTAIVSSTEQPGKITLEATGKGLKKGALIIESCQEAKEGHHHHHH | not soluble
12 | MSLKDGTFQIAIFSDMHFGQYESTTGPEQDRNSVEVLNKVLDYDTPDLVVLNGDLINGDSTWKHNSTHYIDMIVEPMVNRSLTWASTYGNHDHNYNINGDDILVREQMWPGARTQKMVNKTRSGTTNYYLPVYPSDCSNTSDCSPQMILWFFDSRGGNYYQGSWQENWVDQSVVDWFNETSTELTSKHNKTIPSLAFVHVPPNATVALQTELGIRKNNQPGINDDPPVPQQGYGWCADGTPTYDCPYGGQDIPFMEALVTIPGIIGLFYGHDHGNTWCYRWDTKLDGMDIEGNGIHLCYGQHSGYGGYGDWIRGAREIVVTEDMLEKNEVETYIRLESGDVVGKVMLNSTYNEGHHHHHH | not soluble
13 | MSLKDNEKYNALDFIKDDEINSLIAKGKELVSDKELVREIIEKSKSAEGLTPEETAVLLNLEDKELIEEMFKAARQVKEKLYGKRLVVFAPLYVSNYCVNNCTYCGYKHCNDELKRKKLNKEQLIEEVKVLESLGHKRIALEAGEDPVNAPLDYILDCIKSIYSIKFDNGSIRRINVNIAATSVEDYKRLKDAEIGTYILFQETYHKPTYERLHVSGPKHNYNYHTTAMHRAREAGIDDIGMGVLYGLYDYKYETLAMLMHAMDLEETTGVGPHTLSVPRIRPAENVSLENYPYLVDDEDFKKIVAILRLAVPYAGLILSTREEPGLRDEIIALGVSQVSTGSCTGVGGYSESYIDPEEKPQFEVGDHRSPVEMIESLMEAGYIPSYCTACYREGRTGERFMDIVKSGELYKICEANALITLKEFIDDYGTDRTREIGDKLIKKSIDEIDNESFRKSVEEKINKISNGTRDLRFEGHHHHHH | soluble
14 | MSLKEAEVLKYEAFTSSPGKGNPAGVVLQGDDYTEDEMQIIAERAGYSETSFIRKSESADLELRYFTPGHEMNLCGHATVASLYALCEKGMLESGKTYSIQTKAGILPVKISEKDGRIHITLEQASPQFKPFTGDRKKLADALGITDEDFHEDLPIVFGSTGIWTAIVPLKSLEASKKMVPDNKQFPEVLVDLPKASVHPFTFETVHPDSDLHGRHFSSPYSGTIEDPVTGTASGVMGAYMKHYGNAEQHKFIIEQGQEIGKDGKVEIEMNEAGGHVKVNMTGTAVYSETRILKIEGGSHHHHHH | soluble
15 | MSLKEEEIQNDFMFEEYHKGDKIVLNSVNGGSKTLIRTDKGFVVEGEEGKVLMFDFFGTFCTPCKEEALDLSKLWKNNSSKFIIIGLTHFEDVSDETVKKFAGDYGAYYFLSNGSSNDRIIAQILKDIDYQNMEQLPFKVVLKNGIYQKISDYWNNNTPTNFYLGKIPTELMQEDLNKIYKGKEGHHHHHH | soluble
16 | MSLKEKSVINAVKAEILVEKLVDKLMKEQELNPSEDILRAYYEFYKREFYRPSSVKLLGIYVKSKKEAERISQILKQGEVPSTEDVKVSKPLWYSIPTLPKYIRRNFRTLSVGEVSKPIKINDGYLVFKILDKKPAGFIPFERAKSLVKKMYLKEKRKEVFKKWLSEVLKKYQVRSTGKTCNTFISRFFFRKVNRQGEGHHHHHH | not soluble
17 | MSLKETEIIKLFQEELKSKVLGDDAGFIKLGDRWLLLTNDMLVWRTDVPDFMTPEEAGAKVVTMNVSDIAAMGGKPIGFFFSLGLPRDINEKTLREIAKGIKRGTKRYNVEVLSGDTNESNELVIDGGAIGEAERILLRSGAKPGEVVCVTGDLGRPLTALLLWLKGEKIPREIAEKMKNPIARVREGLELANYASSAIDISDGLSKELWEISKASKVKIVIDPNSLPVHEKVKEIVKNPVEVALASGEEFELVFTISQEYLDILSFEFSIIGRVEKGEGVYTTTGEKVPMRGWEHFAGGNNDIGSEGHHHHHH | soluble
18 | MSLKFEKFICNLRQFTLTNGLKRSIAIISLVDKKGNISKGEVAPLPPWSKETLEEAIRQIDAKKSFILNIDWTIENYRDALMHLHLFPSVQFGIESALLSFLDPLKTYSIPVSALLMGSKKEILAQAKLRLQEGYQIAKLKVSQLSFSDAAKLIHQLKDTFRLRIDVNRAWKTEDSLQFFSEYSLDSFDYVEEPFQNPKELSLFSHPLAVDESFPSNFSLQDLETLCSLKSLIYKPTLQGGMTTCLPVYKWAKQRNIEFVLSSSFESELGLSHLISMAARLKLTSPIGIGTYHFLPQTEGPFLISNGQVNLKNLEGHHHHHH | not soluble
